From the Human Domainome abundance scans (Beltran et al. 2025) come the findings set out here.

± gives the uncertainty stated by the source.

First the molecules themselves.
B1: Membrane-associated guanylate kinase, WW and PDZ domain-containing protein 3, residues 287 to 329; numbered along this chain, Q5TCQ9 (parent)
chain: MRDETLEPLPKNWEMAYTDTGMIYFIDHNTKTTTWLDPRLCKK

This series covers variants of B1. Kind of series: abundance fitness (aPCA) (normalised: wild type 0, dead -1); higher = more abundant; growth selection in yeast, the domain comes from the species named. The settings on record: Homo sapiens.
Take L36I: the abundance fitness was -0.07 ± 0.042.

For L36V, the abundance fitness was -0.019 ± 0.039. Consider L36F, for which the abundance fitness is -0.088 ± 0.037. The figure for L36Y is -0.077 ± 0.081; for L36H it is -0.037 ± 0.07. Consider L36N, for which the abundance fitness is -0.121 ± 0.076. For the variant L36T, the abundance fitness is -0.078 ± 0.037.

For N12H, the abundance fitness is -0.185 ± 0.08. As for N12R, the abundance fitness is -0.215 ± 0.033.

Turning to N12W, the abundance fitness was -0.412 ± 0.045. Take N12E: the abundance fitness was -0.22 ± 0.049. As to N12L, the abundance fitness was -0.247 ± 0.035. With G21E the figure was -0.215 ± 0.039; with G21Q, -0.222 ± 0.059. With H28D the figure was -0.53 ± 0.11; with H28Q, -0.306 ± 0.054. With H28L the figure was -0.379 ± 0.043.

As to T32K, the abundance fitness was -0.303 ± 0.041.

With T32D, the abundance fitness is -0.47 ± 0.079. The figure for T32P is -0.879 ± 0.048; for T32H it is -0.438 ± 0.054; for W35Q it is -0.232 ± 0.033. With W35H the figure was -0.447 ± 0.18. Regarding W35G, the abundance fitness was -0.341 ± 0.03.

Consider W35R, for which the abundance fitness is -0.266 ± 0.03. With W35T, the abundance fitness was -0.104 ± 0.054. With W35M the figure was -0.16 ± 0.039; with W35D, -0.359 ± 0.045. With M1K the figure was 0.025 ± 0.047; with M1T, -0.06 ± 0.039; with M1S, -0.064 ± 0.096. D27N: the abundance fitness was -0.238 ± 0.32.

Turning to D27M, the abundance fitness was -0.766 ± 0.066.

For D27P, the abundance fitness was -1.12 ± 0.12. With D27V the figure was -1.01 ± 0.062; with D27L, -1.11 ± 0.094. The figure for D27E is -0.266 ± 0.042; for D19Y it is -0.173 ± 0.22; for D19K it is -0.034 ± 0.053. The figure for D19A is -0.047 ± 0.033; for D19R it is -0.091 ± 0.045; for P10Q it is -0.505 ± 0.048.

Regarding P10S, the abundance fitness was -0.496 ± 0.037.

Take P10F: the abundance fitness is -0.831 ± 0.071. The figure for P10D is -0.527 ± 0.13. With P10A the figure was -0.392 ± 0.038. As to R39P, the abundance fitness was -0.516 ± 0.035. For R39F, the abundance fitness was -0.635 ± 0.11. The figure for T34C is -0.64 ± 0.084; for T34P it is -0.906 ± 0.053. The figure for T34L is -1.21 ± 0.092.

Turning to K31H, the abundance fitness is 0.018 ± 0.078. With K31L the figure was -0.182 ± 0.033; with K31R, -0.017 ± 0.03; with T20N, -0.132 ± 0.27. T20H: the abundance fitness is -0.345 ± 0.22. The figure for T20E is 0.017 ± 0.037; for T30Q it is -0.139 ± 0.053; for W13E it is -0.683 ± 0.045. The figure for W13Q is -0.729 ± 0.068.

Turning to W13C, the abundance fitness is -0.636 ± 0.063. The figure for W13K is -0.67 ± 0.064; for E14M it is -0.346 ± 0.042; for E14W it is -0.834 ± 0.056. With E14P the figure was -0.868 ± 0.064; with E14N, -0.372 ± 0.065; with E14L, -0.456 ± 0.095. The figure for I26L is -0.097 ± 0.044; for I26G it is -0.657 ± 0.039; for I26Y it is -0.479 ± 0.14.

As to E4A, the abundance fitness was -0.09 ± 0.038. The figure for E4M is -0.11 ± 0.043; for E4W it is -0.515 ± 0.057. With M15L the figure was -0.066 ± 0.035. With M15Q the figure was -0.007 ± 0.035; with M15Y, -0.186 ± 0.051. Turning to M15W, the abundance fitness is -0.283 ± 0.053. With M15K the figure was -0.037 ± 0.05; with M15I, 0.036 ± 0.24. The figure for M15C is -0.097 ± 0.053. Consider M15R, for which the abundance fitness was -0.013 ± 0.034. As for M15F, the abundance fitness is -0.189 ± 0.036.

Turning to T5V, the abundance fitness was -0.064 ± 0.033. As for T5N, the abundance fitness was 0.125 ± 0.2. The figure for T5C is -0.123 ± 0.09; for T5D it is -0.02 ± 0.054; for T5M it is 0.251 ± 0.14. The figure for T5E is -0.046 ± 0.037; for T5F it is -0.384 ± 0.16; for K42C it is -0.146 ± 0.062. For K42Q, the abundance fitness is -0.056 ± 0.04. Take K42I: the abundance fitness was -0.097 ± 0.07. The figure for K42E is 0.056 ± 0.044; for L40M it is -0.069 ± 0.038; for L40C it is -0.033 ± 0.035.

Regarding L40E, the abundance fitness came to 0.022 ± 0.037. Take L40V: the abundance fitness is 0 ± 0.034.

Take L40D: the abundance fitness was -0.039 ± 0.045.

Consider L6E, for which the abundance fitness was -0.029 ± 0.053.

Turning to L6Q, the abundance fitness is 0.103 ± 0.071.

For the variant L6A, the abundance fitness worked out at 0.016 ± 0.036. As to N29K, the abundance fitness is -0.105 ± 0.046.

Take Y17A: the abundance fitness amounted to 0.026 ± 0.047.

Regarding Y17S, the abundance fitness is -0.024 ± 0.043. As for Y17C, the abundance fitness is -0.052 ± 0.041. The figure for E7K is -0.101 ± 0.045; for E7S it is -0.049 ± 0.044. For E7F, the abundance fitness is -0.327 ± 0.045.

Take K11H: the abundance fitness was -0.08 ± 0.037. With K11V the figure was -0.109 ± 0.037; with K11D, -0.092 ± 0.086. As for L9S, the abundance fitness was -0.621 ± 0.045. With L9K the figure was -0.683 ± 0.087. As for D3Y, the abundance fitness was -0.367 ± 0.12. The figure for D3L is -0.175 ± 0.043; for D3I it is -0.213 ± 0.1; for D3F it is -0.161 ± 0.065.

With K43N, the abundance fitness was -0.062 ± 0.076. Regarding K43P, the abundance fitness amounted to 0.042 ± 0.046. With K43C, the abundance fitness is -0.065 ± 0.045. With P38E the figure was -1.02 ± 0.062.

Take P38M: the abundance fitness was -0.83 ± 0.066. With P38W the figure was -0.963 ± 0.048; with P38K, -0.994 ± 0.077.

Take P38N: the abundance fitness was -1.04 ± 0.1. The figure for P38A is -0.899 ± 0.046; for M22Q it is 0.096 ± 0.071. With M22T the figure was -0.005 ± 0.049. For the variant M22S, the abundance fitness was determined as 0.199 ± 0.13. Consider F25R, for which the abundance fitness was -0.692 ± 0.035. Turning to F25C, the abundance fitness is -0.774 ± 0.049. With F25T, the abundance fitness was -0.662 ± 0.058. Turning to F25Q, the abundance fitness was -0.634 ± 0.05. With R2W the figure was -0.226 ± 0.038; with R2C, -0.046 ± 0.048; with R2K, -0.045 ± 0.073.

R2M: the abundance fitness was -0.015 ± 0.077.

On to T18G, for which the abundance fitness was -0.244 ± 0.029. For T18R, the abundance fitness is -0.7 ± 0.035.

As for T18E, the abundance fitness was -0.389 ± 0.038.

Consider A16M, for which the abundance fitness was -0.36 ± 0.058. As to C41T, the abundance fitness is 0.01 ± 0.046. The figure for C41G is -0.004 ± 0.029; for C41S it is 0.034 ± 0.041; for D37V it is -0.926 ± 0.043. The figure for D37N is -0.235 ± 0.049; for D37M it is -1.02 ± 0.1.

D37W: the abundance fitness was -0.616 ± 0.061. Take D37C: the abundance fitness was -0.459 ± 0.044.

On to P8D, for which the abundance fitness is -0.087 ± 0.05. On to P8M, for which the abundance fitness is -0.255 ± 0.056. For P8R, the abundance fitness was -0.112 ± 0.031. Turning to P8Y, the abundance fitness was -0.395 ± 0.13. With P8Q the figure was -0.15 ± 0.053; with Y24G, -0.774 ± 0.036. Regarding Y24V, the abundance fitness is -0.567 ± 0.04.

As for Y24C, the abundance fitness was -0.652 ± 0.042. The figure for T33Y is -0.447 ± 0.11. Turning to T33Q, the abundance fitness is -0.417 ± 0.038. The figure for T33I is -0.519 ± 0.059; for T33L it is -0.496 ± 0.032. Consider T33E, for which the abundance fitness is -0.442 ± 0.034.

For the variant T33C, the abundance fitness is -0.142 ± 0.046.

Regarding T33H, the abundance fitness was -0.535 ± 0.11. Turning to I23L, the abundance fitness is -0.01 ± 0.029.

For the variant I23E, the abundance fitness came to 0.028 ± 0.034. The figure for I23A is 0.053 ± 0.032.
